Four molecules from patent US20210163923A1 (IONTAS, published 2021) can be followed below.

In one assay the target is T1, PD-1 (UniProt Q15116 25-167, biotinylated in the MACS experiments).
T1 construct: The catalogue number points to a human PD-1 reagent; also called biotinylated PD1 (PD1-H82E4, AcroBiosystems); PD-1-biotin
The experiment in a line: surface plasmon resonance (SPR). (Surface plasmon resonance follows binding to a sensor surface in real time, without labels.)

The target of assay [1] is T2, unconjugated streptavidin-PE (UniProt P22629 37-163, limits assumed, phycoerythrin conjugate).
T2 construct: Control staining reagent; also called streptavidin-PE alone
The experiment in a line: flow cytometry of HEK293 cells 24 hours after transfection, stained with streptavidin-PE alone [panel Streptavidin PE].

The target in assay [2] is T2, unconjugated streptavidin-PE. The experiment in a line: flow cytometry of HEK293 cells displaying the IgG, stained with streptavidin PE alone.

T2 sequence (P22629 37-163 limits assumed): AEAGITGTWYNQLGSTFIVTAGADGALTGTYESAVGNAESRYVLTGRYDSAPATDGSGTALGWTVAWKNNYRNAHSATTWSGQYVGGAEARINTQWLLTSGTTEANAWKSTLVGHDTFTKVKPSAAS
T1 sequence (Q15116 25-167 limits assumed): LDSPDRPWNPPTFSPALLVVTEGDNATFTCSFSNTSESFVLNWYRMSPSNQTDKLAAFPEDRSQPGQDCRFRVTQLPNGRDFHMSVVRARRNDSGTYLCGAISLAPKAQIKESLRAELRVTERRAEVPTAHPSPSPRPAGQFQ

B1: 337_1_C08 (antibody, V domains shown)
VH: EVQLVQSGAEVKRPGASVTVSCKASGYTFTNHGISWVRQAPGQGLEWMGWNSPYNGNTNYAQRFQGRVTMTTDTSTNTAYMELRTLTSDDTAMYYCARDRDYYDAGSYWGQGTLVTVSS
VL: SYELTQPPSVSVSPGQTARITCSGDSLPKQYAYWYQQKPGQAPVLVIYKDSERPSGIPERFSGSGSGTTVTLTISGVQAEDEADYYCQSADSDNAFVFGRGTKLTVL
notes: Anti-PD1 antibody identified by phage display; also called anti-PD1 antibody 337_1_C08; 337_C08
Turning to B1, the Kd (as a rule, the concentration at which binding is half-saturated) in the assay with PD-1 was 74 nM.

B2: Emicizumab (bi-specific, displayed from pINT17-Bi-CMV-Emicizumab) (bispecific antibody, human IgG4 S228P)
light: DIQMTQSPSSLSASVGDRVTITCKASRNIERQLAWYQQKPGQAPELLIYQASRKESGVPDRFSGSRYGTDFTLTISSLQPEDIATYYCQQYSDPPLTFGGGTKVEIKRTAAAPSVFIFPPSDEQLKSGTASVVCLLNNFYPREAKVQWKVDNALQSGNSQESVTEQDSKDSTYSLSSTLTLSKADYEKHKVYACEVTHQGLSSPVTKSFNRGEC
heavy 1: QVQLVESGGGLVQPGGSLRLSCAASGFTFSYYDIQWVRQAPGKGLEWVSSISPSGQSTYYRREVKGRFTISRDNSKNTLYLQMNSLRAEDTAVYYCARRTGREYGGGWYFDYWGQGTLVTVSSASTKGPSVFPLAPCSRSTSESTAALGCLVKDYFPEPVTVSWNSGALTSGVHTFPAVLQSSGLYSLSSVVTVPSSSLGTQTYTCNVDHKPSNTKVDKRVESKYGPPCPPCPAPEFLGGPSVFLFPPKPKDTLMISRTPEVTCVVVDVSQEDPEVQFNWYVDGVEVHNAKTKPREEQYNSTYRVVSVLTVLHQDWLNGKEYKCKVSNKGLPSSIEKTISKAKGQPREPQVYTLPPSQKEMTKNQVSLTCLVKGFYPSDIAVEWESNGQPENNYKTTPPVLDSDGSFFLYSKLTVDKSRWQEGNVFSCSVMHEALHNRYTQKSLSLSPEQKLISEEDLNAVGQDTQEVIVVPHSLPFKVVVISAILALVVLTIISLIILIMLWQKKPR
heavy 2: QVQLVQSGSELKKPGASVKVSCKASGYTFTDNNMDWVRQAPGQGLEWMGDINTRSGGSIYNEEFQDRVIMTVDKSTDTAYMELSSLRSEDTATYHCARRKSYGYYLDEWGEGTLVTVSSASTKGPSVFPLAPCSRSTSESTAALGCLVKDYFPEPVTVSWNSGALTSGVHTFPAVLQSSGLYSLSSVVTVPSSSLGTQTYTCNVDHKPSNTKVDKRVESKYGPPCPPCPAPEFLGGPSVFLFPPKPKDTLMISRTPEVTCVVVDVSQEDPEVQFNWYVDGVEVHNAKTKPREEQYNSTYRVVSVLTVLHQDWLNGKEYKCKVSNKGLPSSIEKTISKAKGQPREPQVYTLPPSQEEMTKNQVSLTCLVKGFYPSDIAVEWESNGQPENNYKTTPPVLDSDGSFFLYSKLTVDKSRWQEGNVFSCSVMHEALHNHYTQESLSLSPEQKLISEEDLNAVGQDTQEVIVVPHSLPFKVVVISAILALVVLTIISLIILIMLWQKKPR
notes: also called bi-specific Emicizumab; knobs-into-holes common light chain IgG
As for B2, the binding result in assay [1] is reported as “no binding”.

B3: mono-specific anti-FIXa IgG (Emicizumab anti-FIXa VH with Emicizumab VL, pINT17-BSD-anti-FIXa) (antibody, V domains shown)
VH: QVQLVESGGGLVQPGGSLRLSCAASGFTFSYYDIQWVRQAPGKGLEWVSSISPSGQSTYYRREVKGRFTISRDNSKNTLYLQMNSLRAEDTAVYYCARRTGREYGGGWYFDYWGQGTLVTVSS
VL: DIQMTQSPSSLSASVGDRVTITCKASRNIERQLAWYQQKPGQAPELLIYQASRKESGVPDRFSGSRYGTDFTLTISSLQPEDIATYYCQQYSDPPLTFGGGTKVEIK
notes: also called mono-specific anti-FIXa arm in IgG format
As for B3, the binding result in assay [1] was “no binding”.

B4: Ustekinumab (antibody, V domains shown)
VH: EVQLVQSGAEVKKPGESLKISCKGSGYSFTTYWLGWVRQMPGKGLDWIGIMSPVDSDIRYSPSFQGQVTMSVDKSITTAYLQWNSLKASDTAMYYCARRRPGQGYFDFWGQGTLVTVS
VL: DIQMTQSPSSLSASVGDRVTITCRASQGISSWLAWYQQKPEKAPKSLIYAASSLQSGVPSRFSGSGSGTDFTLTISSLQPEDFATYYCQQYNIYPYTFGQGTKLEIKR
notes: Anti-IL12 antibody; also called Ustenkinumab; Ustenikumab
For B4, the binding result in assay [2] is “no binding”.
